Results on two molecules are retold here after paper PMC2815190 (Molecular immunology, 2009).

Series [1] deals with human Toll-like receptor 8 with the RQSYA motif deleted (human) (UniProt Q9NR97). Put plainly: immunoblot of cell lysate. Background: In western blotting, separated proteins are transferred to a membrane and probed.
Series [2] concerns the molecule itself. Put plainly: immunoblot of cell lysate.

By stoichiometry N is commonly meant a count of units in the complex or per binding partner. In the case of “human Toll-like receptor 8 with the RQSYA motif deleted (from UniProt Q9NR97-1 27-1041)”, the stoichiometry N in series [1] was found to be 2.

B1: human Toll-like receptor 8, wild type (receptor, UniProt Q9NR97-1 27-1041, looked up)
chain: EENFSRSYPCDEKKQNDSVIAECSNRRLQEVPQTVGKYVTELDLSDNFITHITNESFQGLQNLTKINLNHNPNVQHQNGNPGIQSNGLNITDGAFLNLKNLRELLLEDNQLPQIPSGLPESLTELSLIQNNIYNITKEGISRLINLKNLYLAWNCYFNKVCEKTNIEDGVFETLTNLELLSLSFNSLSHVPPKLPSSLRKLFLSNTQIKYISEEDFKGLINLTLLDLSGNCPRCFNAPFPCVPCDGGASINIDRFAFQNLTQLRYLNLSSTSLRKINAAWFKNMPHLKVLDLEFNYLVGEIASGAFLTMLPRLEILDLSFNYIKGSYPQHINISRNFSKLLSLRALHLRGYVFQELREDDFQPLMQLPNLSTINLGINFIKQIDFKLFQNFSNLEIIYLSENRISPLVKDTRQSYANSSSFQRHIRKRRSTDFEFDPHSNFYHFTRPLIKPQCAAYGKALDLSLNSIFFIGPNQFENLPDIACLNLSANSNAQVLSGTEFSAIPHVKYLDLTNNRLDFDNASALTELSDLEVLDLSYNSHYFRIAGVTHHLEFIQNFTNLKVLNLSHNNIYTLTDKYNLESKSLVELVFSGNRLDILWNDDDNRYISIFKGLKNLTRLDLSLNRLKHIPNEAFLNLPASLTELHINDNMLKFFNWTLLQQFPRLELLDLRGNKLLFLTDSLSDFTSSLRTLLLSHNRISHLPSGFLSEVSSLKHLDLSSNLLKTINKSALETKTTTKLSMLELHGNPFECTCDIGDFRRWMDEHLNVKIPRLVDVICASPGDQRGKSIVSLELTTCVSDVTAVILFFFTFFITTMVMLAALAHHLFYWDVWFIYNVCLAKVKGYRSLSTSQTFYDAYISYDTKDASVTDWVINELRYHLEESRDKNVLLCLEERDWDPGLAIIDNLMQSINQSKKTVFVLTKKYAKSWNFKTAFYLALQRLMDENMDVIIFILLEPVLQHSQYLRLRQRICKSSILQWPDNPKAEGLFWQTLRNVVLTENDSRYNNMYVDSIKQY
As for B1, the “stoichiometry N” value in series [2] was 2.
